± gives the half width of the 95% confidence interval.
Tests used:
[1] = folding stability dG unfold (combined trypsin and chymotrypsin); higher = more stable
Summary of the method: (§1)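 Designed mini-proteins (under 80 residues, no cysteine) in a PA-tagged cDNA display construct were digested with trypsin and chymotrypsin. Each protease was used at 11 concentrations (threefold dilutions) plus a no-protease condition, followed by sequencing. K50 was inferred by Bayesian fitting of sequencing counts, and unfolding free energy was derived against a sequence-predicted unfolded-state K50 and a shared folded-state K50, per protease or combined. Only designs with AlphaFold2 dimer inter-PAE above 15 were kept.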

[2] = folding stability dG unfold from chymotrypsin proteolysis; higher = more stable
Summary of the method: as §1

[3] = folding stability dG unfold from trypsin proteolysis; higher = more stable
Summary of the method: as §1

Row | Sequence | folding stability dG unfold [1] | folding stability dG unfold [2] | folding stability dG unfold [3]
1 | KKTYTAEEIRKLAEKLGLEVPEGDLEIKVVFKDNKKTYTIKPGEEYTLEEILEKLKKEKPNIVKIEIKKKPS [r1_135_TrROS_Hall] | 1.99 ± 0.27 kcal/mol | 2.31 ± 0.034 kcal/mol | 1.32 ± 0.18 kcal/mol
2 | KKVKIEIEVEKVEDGYYVVRIKVKFEETEETIELELVFPKSLEEVLEKIKELLPEGQITEVEIEVYPLPEPS [r1_399_TrROS_Hall] | 3.72 ± 0.67 kcal/mol | 3.13 ± 0.25 kcal/mol | 3.89 ± 0.23 kcal/mol
3 | KKVKIEIEVLSKTEEGYVMIAKAKYEEVEKVFEKPYKSKNPIETIKKIVKELFPGPEVTEVKVKYYPKEKKS [r1_399_TrMRF] | 1.35 ± 0.17 kcal/mol | 1.47 ± 0.11 kcal/mol | 1.11 ± 0.053 kcal/mol
4 | KKYKVPVKEALKVAKKLIEKGYEKVKITAYLPNGEKYEIEDIKEFEEELKKKFPGIKPENLTVEIEVIPKES [r1_325_TrMRF] | 4.16 ± 0.37 kcal/mol | 4.49 ± 0.26 kcal/mol | 3.26 ± 0.15 kcal/mol
5 | KTIEIWIPMPMGQAETFVKSLARKLGLPPDDYKVDNVEMQPNKDGWPYVKMEIKLPNNGKEIEIIMPPGWFS [r1_21_TrROS] | 2.38 ± 0.23 kcal/mol | 2.6 ± 0.059 kcal/mol | 1.67 ± 0.061 kcal/mol
6 | KTIMIWFPFKSWEDVRNLIRDLARELNLPPGRDVDVKVERHPNNGYFRVTVTVSNPNGEKIDITIWFPMWDS [r1_84_TrROS] | 4.91 ± 0.16 kcal/mol | 5.26 ± 0.15 kcal/mol | 3.42 ± 0.1 kcal/mol
7 | KTVHIPINGMPLDEMLDMARDALREDPDEGKTITIWVPGNPEWLENLGFDKIEPYKDPERPYMRIKFKVPPS [r1_467_TrROS] | 0.816 ± 0.14 kcal/mol | 1.24 ± 0.22 kcal/mol | 0.298 ± 0.17 kcal/mol
8 | KYELVATLSRPNPETGTVVNVSVYRFEDGSYRVLVDVSTFYRTPDGSLRTSSSRAVFLVPEDVDPRELVESS [r1_243_TrMRF] | 3.17 ± 0.11 kcal/mol | 3.57 ± 0.081 kcal/mol | 2.75 ± 0.039 kcal/mol
9 | LEIIEKLKFPGYKITSVSIQRTNNKVTIVIHFRHPKEYYMISLEIDPPNGGIKITEVHPIKPGESMDDMMNS [r1_383_TrROS] | 3.43 ± 0.33 kcal/mol | 3.75 ± 0.088 kcal/mol | 3.09 ± 0.15 kcal/mol
10 | MDVKIEPYRDPETGELYYKAVVKFKDGKEKLIEVKVPPNGKPIAKIYDPNGKLLAEKEFDSIEEALKEALAS [r1_478_TrMRF] | 3.91 ± 0.37 kcal/mol | 4.24 ± 0.16 kcal/mol | 3.3 ± 0.35 kcal/mol
11 | MEAEELATTLAAEALAPLPRPFEIDPENNEVRVPGGGELAELPIRVVLVDEDGEIVEERIVPVRIRAEEPGS [r1_318_TrMRF] | 0.542 ± 0.11 kcal/mol | 0.878 ± 0.083 kcal/mol | -0.362 ± 0.14 kcal/mol
12 | MEEEEKKKAETPEIPEEVAREKALEVARELGLEEIEEIEVLSASPEGYVTVRITLPTGGEVEITIPISELES [r1_435_JUSTAS] | 2.54 ± 0.18 kcal/mol | 2.76 ± 0.08 kcal/mol | 2.01 ± 0.13 kcal/mol
13 | MEEIKNLPGVKYEPIIEDGEIRLVRFEIPKEVFEKFGKPPVILLVEFSKDGKYRILPESIPKLLELGIIPGS [r1_256_TrMRF] | 2.27 ± 0.052 kcal/mol | 2.52 ± 0.058 kcal/mol | 1.85 ± 0.023 kcal/mol
14 | MIIIPNATPEEVKKIILDAAKKGKEIEILIEVDPNLGPKVIKALKDLPYVKKVEPLPDGSIKVYIDKKNLKS [r1_324_TrMRF] | 2.89 ± 0.093 kcal/mol | 3.24 ± 0.048 kcal/mol | 1.71 ± 0.038 kcal/mol
15 | MITPEEAIELAKEKAKELLEKAGPGTPSVVVEIKAEDGRVVKVEVDPVKKVINITVYDKGGKKVAEKIIEES [r1_370_JUSTAS] | 2.38 ± 0.11 kcal/mol | 2.67 ± 0.099 kcal/mol | 2.06 ± 0.1 kcal/mol
16 | MKEITVTLPVPEEVLAAIRAGKPLPLEEIKERVKEEIAKRLGYKNVTIKSVKVEKLPDGSLVIKVKVEFLPS [r1_290_JUSTAS] | 4.15 ± 0.087 kcal/mol | 3.58 ± 0.044 kcal/mol | 5.45 ± 0.43 kcal/mol
17 | MKEYLIKIKITITDPNGKKREIEITVLVPAEELTEEQLKELLEKAKELAEKLKEKGYEVKVEVEIIPLEELS [r1_221_TrROS_Hall] | 4.25 ± 0.27 kcal/mol | 4.23 ± 0.21 kcal/mol | 3.83 ± 0.27 kcal/mol
18 | MKIEIEIEREEDRVIVRIKIERKDGKEIELELEVPSLEEALEAIEKILASLPPEEVKIVEIEIYNADGEKIS [r1_169_TrROS_Hall] | 2.21 ± 0.2 kcal/mol | 1.85 ± 0.086 kcal/mol | 2.53 ± 0.14 kcal/mol
19 | MKIIDVVPTPDGLIVVIKVVFPNTEEAYVSASDLDKLIKEIFERFGVKPEYLKITDIKAFSPEELKEFLEES [r1_119_TrMRF] | 2.78 ± 0.075 kcal/mol | 2.98 ± 0.031 kcal/mol | 2.37 ± 0.072 kcal/mol
20 | MKKKVTISIKRKSEVKYTKFPNGEVVPVEDLGGLTVTIEVPESELEELLKKLDIPEDEIEEITVTITPEASS [r1_351_JUSTAS] | 0.648 ± 0.42 kcal/mol | -0.175 ± 0.8 kcal/mol | 1.08 ± 0.18 kcal/mol
21 | MKLLKITITITVTRQFPTVPVTSTTTITLEYTTPPDDPAAIEEAKKTAEEIAKKLGATDVTVTTEEVVLESS [r1_346_JUSTAS] | 3.84 ± 0.11 kcal/mol | 4.08 ± 0.057 kcal/mol | 3.34 ± 0.11 kcal/mol

Row | Sequence | folding stability dG unfold [1] | folding stability dG unfold [2] | folding stability dG unfold [3]
22 | MKPIPAEEIRDLAQKLGLPLPPGQIQIKVRHNNKKKTFPIPAGDPITIDDIVENMQQQNPNIKDIEIVIHPS [r1_135_TrROS] | < -1 kcal/mol | -0.389 ± 0.28 kcal/mol | -0.754 ± 0.53 kcal/mol
23 | MKVEIVEVEYDEETKRVRVKLKVDGKLVEIEFDLESGKVTVRIYEDGEEIEIEAESVEDALEKAKELVKEKS [r1_177_TrROS_Hall] | 1.93 ± 0.28 kcal/mol | 1.69 ± 0.12 kcal/mol | 2.02 ± 0.2 kcal/mol
24 | MLVVEVPAEELSPEQVRERIRAALRAAREAGIRDARIVIVVEASEEQRERLRRELRELAEEEGLEVEIVERS [r1_387_TrROS_Hall] | 5.34 ± 0.18 kcal/mol | 5.52 ± 0.2 kcal/mol | 4.83 ± 0.17 kcal/mol
25 | MMLIIKVKNKKTGKTETIKIDMSVEEIKNAIKELKKKNPNAKVTIIGVKTEEVRKALKEAGIEKIEVKPLPS [r1_114_TrROS_Hall] | 3.51 ± 0.31 kcal/mol | 3.5 ± 0.22 kcal/mol | 3.01 ± 0.23 kcal/mol
26 | MMYLIRVTVYDEETEEEVEEIEILIELSEEELKNMSEEEREKLLEEALKKAEELAKEYPNLKIEVEIVELPS [r1_115_TrROS_Hall] | 3.83 ± 0.14 kcal/mol | 4.01 ± 0.09 kcal/mol | 3.52 ± 0.13 kcal/mol
27 | MNIKVTSVLPDGTVVVTAEAPLPDGSSIRVTAARRGKDSYVLVTVNVYPTKVVADIKEVAPVSPGSPEEGGS [r1_53_TrMRF] | 2.88 ± 0.12 kcal/mol | 3.3 ± 0.12 kcal/mol | 2.21 ± 0.085 kcal/mol
28 | MPARVEARRIPDEPRLEVVVDFPGYRVVVRVDEGGRVEVEVVWEENVGPEERAAAEEAAEAFAREVAEALGS [r1_468_TrMRF] | 0.839 ± 0.099 kcal/mol | 1.05 ± 0.039 kcal/mol | 0.401 ± 0.19 kcal/mol
29 | MPLGLESERYPNGAPTIESVEVPEDGSVKITLYFPETGEKVEYTLPPNIPPGTEYEIDLPGPTGTGRLRLGS [r1_43_TrMRF] | 1.27 ± 0.2 kcal/mol | 1.65 ± 0.15 kcal/mol | -0.204 ± 0.2 kcal/mol
30 | MPNLKPALLVIPMKVESIEEAEEKVLAFAEELAEAFPNIKKIEVEILEIDEENGIVIAKITVEAEDSALDAS [r1_52_TrMRF] | 2.13 ± 0.19 kcal/mol | 2.34 ± 0.051 kcal/mol | 2.12 ± 0.1 kcal/mol
31 | MRIEIRVEKVEDGFYKVTIRLEETGETLELVVPKSLEEAKAAAEELLRELFPDVKVTEIRVERVPLPEEDLS [r1_80_TrROS_Hall] | 2.9 ± 0.07 kcal/mol | 2.77 ± 0.063 kcal/mol | 3.03 ± 0.077 kcal/mol
32 | MRVVFEATYTDPEGVPVTETFVIPEEVLEEIEREGRPITREELVELAEEIIRDYTKEHDADVEFRFVEFEPS [r1_174_TrMRF] | 2.27 ± 0.1 kcal/mol | 2.52 ± 0.025 kcal/mol | 1.91 ± 0.086 kcal/mol
33 | MSEEELRELEERLAAPGPVEVRVEVEVREEEGDEPVFVFRVRYYRPEPGEELGEEEIVVPEEELEELLRELS [r1_415_TrMRF] | 1.93 ± 0.15 kcal/mol | 2.31 ± 0.086 kcal/mol | 1.34 ± 0.065 kcal/mol
34 | MTEEEVRAEAEARARALAEERGVEITAVDIDGEVEQVVETTTRPTPDGRPVTETTSKKIKTKVRATLRPPRS [r1_91_JUSTAS] | 1.09 ± 0.14 kcal/mol | 1.39 ± 0.053 kcal/mol | -0.107 ± 0.27 kcal/mol
35 | MTIVIDTPVPPEEAEALLRELAEELGYSPELMEVEERVFSEGEDGRPYVTLTVRLPGLGVTITLRLPPDAAS [r1_21_JUSTAS] | 3.66 ± 0.041 kcal/mol | 3.681 ± 0.02 kcal/mol | 3.61 ± 0.11 kcal/mol
36 | MTPEERIEEIEAKARELLRELGLPPEVRLTVEAEVRPRPDGRLELRVRVTVEFPGPPGAIPPELLEALAEES [r1_98_TrMRF] | 2.53 ± 0.14 kcal/mol | 2.38 ± 0.086 kcal/mol | 2.7 ± 0.081 kcal/mol
37 | MTPTFTVTELPPDLLRVEYTDPVTGKRATFTLPVSPVGDGVRLSAEVDAEGLPEEVAAAIRDAALAALAAAS [r1_403_JUSTAS] | 2.06 ± 0.042 kcal/mol | 2.3 ± 0.023 kcal/mol | 1.48 ± 0.021 kcal/mol
38 | MVELVEVTRENGLVTVTVANPIPGATLTVEVRDPEGKVLASSTSPSPTVTVTAEIPPDEDFSVTVTQTPPAS [r1_382_JUSTAS] | > 6 kcal/mol | 3.99 ± 0.2 kcal/mol | 3.43 ± 0.14 kcal/mol
39 | MYLVRIKIEYKTEDGEKVEKEITLLVEPSEEEAKEKAEELARKIAEELGLSEEEIKKIEVEVVKLGEELEES [r1_159_TrROS_Hall] | 4.29 ± 0.15 kcal/mol | 4.37 ± 0.12 kcal/mol | 4.05 ± 0.22 kcal/mol
40 | MYTIEVEVSTEPNPNTTTVTVRITSDDGTPVPEEVVKEAAEKIKKSGYPIDELEVKPLPDGSVEVTLKYSSS [r1_408_JUSTAS] | 3.76 ± 0.11 kcal/mol | 4.05 ± 0.13 kcal/mol | 3.31 ± 0.17 kcal/mol
41 | MYVVRAKFKIKGEDGSEFEAETVILVEETPEEAKEKVEEKAREIAEELGLSLENITEIEVEVLSLDEELLPS [r1_159_TrMRF] | 2.12 ± 0.27 kcal/mol | 2.16 ± 0.15 kcal/mol | 1.44 ± 0.1 kcal/mol
42 | NINPEFMEKIVNEIANRMNQQGWKIKKVDIEPYPNGMIDIKVNGREIEFPWPNGRWFRIKVEAKRVPPEQRS [r1_31_TrROS] | 2.41 ± 0.076 kcal/mol | 2.87 ± 0.076 kcal/mol | 1.93 ± 0.027 kcal/mol
